The record followed here is US10738340B2, “Methods and materials for enzymatic synthesis of mogroside compounds” (EVOLVA SA, priority 2011, dated 2020).

The nature of this assay: In vitro UGT screening: reactions of mogrol with a panel of 230 UGT enzymes, products analyzed with LC-MS. It is filed as biochemical. The settings on record: for position of mogrol glycosylated by the UGT: aglycone mogrol as substrate, see FIG. 2; for product formed from mogrol substrate in the in vitro UGT reaction (LC-MS): partially purified UGT enzyme or crude enzyme extract. As to the method: In vitro reactions of mogrol with a panel of 230 UGT enzymes were performed and the products were analyzed with LC-MS. The in vitro UGT reaction mixtures included 4× Tris buffer, mogrol (250 μM), UDP-glucose (750 μM) and 1% alkaline phosphatase. Five μl of each partially purified UGT enzyme or crude enzyme extract was added to the reaction, and the reaction volume brought to 50 μl with water. The reactions were incubated overnight at 30° C. and performed in sterilized 96 well plates. After the incubation, 25 μL of DMSO were added into each reaction and the reaction plates were centrifuged for 5 min. Forty μL samples were taken from each well and filtered, and were used for LC-MS analysis.

[1] abbreviates: mogrol 250 μM, UDP-glucose 750 μM, overnight at 30° C.

B1: UGT 85C2: UDP dependent glucosyltransferase from Stevia rebaudiana, glycosyltransferase family I, SEQ ID NO:5 (protein, listed as Stevia rebaudiana)
chain: MDAMATTEKKPHVIFIPFPAQSHIKAMLKLAQLLHHKGLQITFVNTDFIHNQFLESSGPHCLDGAPGFRFETIPDGVSHSPEASIPIRESLLRSIETNFLDRFIDLVTKLPDPPTCIISDGFLSVFTIDAAKKLGIPVMMYWTLAACGFMGFYHIHSLIEKGFAPLKDASYLTNGYLDTVIDWVPGMEGIRLKDFPLDWSTDLNDKVLMFTTEAPQRSHKVSHHIFHTFDELEPSIIKTLSLRYNHIYTIGPLQLLLDQIPEEKKQTGITSLHGYSLVKEEPECFQWLQSKEPNSVVYVNFGSTTVMSLEDMTEFGWGLANSNHYFLWIIRSNLVIGENAVLPPELEEHIKKRGFIASWCSQEKVLKHPSVGGFLTHCGWGSTIESLSAGVPMICWPYSWDQLTNCRYICKEWEVGLEMGTKVKRDEVKRLVQELMGEGGHKMRNKAKDWKEKARIAIAPNGSSSLNIDKMVKEITVLARN
Regarding B1, the “position of mogrol glycosylated by the UGT” value (from here on “position”) is “glycosylate at the C24-OH position”. Moreover, under setting [1], the “product formed from mogrol substrate in the in vitro UGT reaction (LC-MS)” value (shortened to “product formed from mogrol substrate”) is listed as “convert all the mogrol substrate to mogroside Ib”.

B2: UGT 73C5: UDP dependent glucosyltransferase from Arabidopsis thaliana, glycosyltransferase family I, SEQ ID NO:2 (protein, listed as Arabidopsis thaliana)
chain: MVSETTKSSPLHFVLFPFMAQGHMIPMVDIARLLAQRGVIITIVTTPHNAARFKNVLNRAIESGLPINLVQVKFPYLEAGLQEGQENIDSLDTMERMIPFFKAVNFLEEPVQKLIEEMNPRPSCLISDFCLPYTSKIAKKFNIPKILFHGMGCFCLLCMHVLRKNREILDNLKSDKELFTVPDFPDRVEFTRTQVPVETYVPAGDWKDIFDGMVEANETSYGVIVNSFQELEPAYAKDYKEVRSGKAWTIGPVSLCNKVGADKAERGNKSDIDQDECLKWLDSKKHGSVLYVCLGSICNLPLSQLKELGLGLEESQRPFIWVIRGWEKYKELVEWFSESGFEDRIQDRGLLIKGWSPQMLILSHPSVGGFLTHCGWNSTLEGITAGLPLLTWPLFADQFCNEKLVVEVLKAGVRSGVEQPMKWGEEEKIGVLVDKEGVKKAVEELMGESDDAKERRRRAKELGDSAHKAVEEGGSSHSNISFLLQDIMELAEPNN
With B2, the “position” value was “glycosylates at both the C3-OH (UGT #1 in FIG. 2) and C24-OH position”. Besides, under setting [1], the “product formed from mogrol substrate” value is “makes both mogroside Ia and Ib”.

B3: UGT 73E1: UDP dependent glucosyltransferase from Stevia rebaudiana, glycosyltransferase family I, SEQ ID NO:4 (protein, listed as Stevia rebaudiana)
chain: MSPKMVAPPTNLHFVLFPLMAQGHLVPMVDIARILAQRGATVTIITTPYHANRVRPVISRAIATNLKIQLLELQLRSTEAGLPEGCESFDQLPSFEYWKNISTAIDLLQQPAEDLLRELSPPPDCIISDFLFPWTTDVARRLNIPRLVFNGPGCFYLLCIHVAITSNILGENEPVSSNTERVVLPGLPDRIEVTKLQIVGSSRPANVDEMGSWLRAVEAEKASFGIVVNTFEELEPEYVEEYKTVKDKKMWCIGPVSLCNKTGPDLAERGNKAAITEHNCLKWLDERKLGSVLYVCLGSLARISAAQAIELGLGLESINRPFIWCVRNETDELKTWFLDGFEERVRDRGLIVHGWAPQVLILSHPTIGGFLTHCGWNSTIESITAGVPMITWPFFADQFLNEAFIVEVLKIGVRIGVERACLFGEEDKVGVLVKKEDVKKAVECLMDEDEDGDQRRKRVIELAKMAKIAMAEGGSSYENVSSLIRDVTETVRAPH
Take B3: the “position” value is “glycosylate at the C24-OH position”. Also, under setting [1], the “completeness of the mogrol glycosylation reaction” value is “the reaction was not complete” and the “product formed from mogrol substrate” value was “mogroside Ib was found as the major product, together with a new glycosylated mogrol”.

B4: UGT 73C3: UDP dependent glucosyltransferase from Arabidopsis thaliana, glycosyltransferase family I, SEQ ID NO:1 (protein, listed as Arabidopsis thaliana)
chain: MATEKTHQFHPSLHFVLFPFMAQGHMIPMIDIARLLAQRGVTITIVTTPHNAARFKNVLNRAIESGLAINILHVKFPYQEFGLPEGKENIDSLDSTELMVPFFKAVNLLEDPVMKLMEEMKPRPSCLISDWCLPYTSIIAKNFNIPKIVFHGMGCFNLLCMHVLRRNLEILENVKSDEEYFLVPSFPDRVEFTKLQLPVKANASGDWKEIMDEMVKAEYTSYGVIVNTFQELEPPYVKDYKEAMDGKVWSIGPVSLCNKAGADKAERGSKAAIDQDECLQWLDSKEEGSVLYVCLGSICNLPLSQLKELGLGLEESRRSFIWVIRGSEKYKELFEWMLESGFEERIKERGLLIKGWAPQVLILSHPSVGGFLTHCGWNSTLEGITSGIPLITWPLFGDQFCNQKLVVQVLKAGVSAGVEEVMKWGEEDKIGVLVDKEGVKKAVEELMGDSDDAKERRRRVKELGELAHKAVEKGGSSHSNITLLLQDIMQLAQFKN
Turning to B4, the “position” value is given as “glycosylate at the C24-OH position”. Moreover, the “product formed from mogrol substrate” value under setting [1] is recorded as “convert all the mogrol substrate to mogroside Ib”.

B5: UGT 73C6: UDP dependent glucosyltransferase from Arabidopsis thaliana, glycosyltransferase family I, SEQ ID NO:3 (protein, listed as Arabidopsis thaliana)
chain: MAFEKNNEPFPLHFVLFPFMAQGHMIPMVDIARLLAQRGVLITIVTTPHNAARFKNVLNRAIESGLPINLVQVKFPYQEAGLQEGQENMDLLTTMEQITSFFKAVNLLKEPVQNLIEEMSPRPSCLISDMCLSYTSEIAKKFKIPKILFHGMGCFCLLCVNVLRKNREILDNLKSDKEYFIVPYFPDRVEFTRPQVPVETYVPAGWKEILEDMVEADKTSYGVIVNSFQELEPAYAKDFKEARSGKAWTIGPVSLCNKVGVDKAERGNKSDIDQDECLEWLDSKEPGSVLYVCLGSICNLPLSQLLELGLGLEESQRPFIWVIRGWEKYKELVEWFSESGFEDRIQDRGLLIKGWSPQMLILSHPSVGGFLTHCGWNSTLEGITAGLPMLTWPLFADQFCNEKLVVQILKVGVSAEVKEVMKWGEEEKIGVLVDKEGVKKAVEELMGESDDAKERRRRAKELGESAHKAVEEGGSSHSNITFLLQDIMQLAQSNN
For the molecule B5, the “position” value is “glycosylate at the C24-OH position”. Under setting [1], the “product formed from mogrol substrate” value is given as “convert all the mogrol substrate to mogroside Ib”.
